The assay in a line: Fluorescence emission spectra without and with saturating ligand (wavelength shift, ΔIstd, ΔRmax). The note with it: unbound vs ligand-saturated; for ΔIstd: standard intensity change; for ΔRmax: standard ratiometric change. Here is the method: Fluorimetry. All measurements were conducted with an SLM Aminco-Bowman series 2 fluorimeter, with sample stirring at 25° C. Fluorescence emission spectra were acquired with excitation and emission slit widths of 4 and 8 nm, respectively. Photomultiplier tube potential was maintained between 400 and 800 volts. Protein concentrations were in the range of 50 to 1000 nM. Fluorophore-specific excitation was at the following approximate wavelengths: tryptophan, 290 nm; acrylodan, 390 nm; fluorescein, 485 nm; pyrene, 340 nm; NBD and NBDE, 490 nm; JPW4039, 485 nm; JPW4042, 470 nm; JPW4045, 470 nm.
Assessment of fluorescent biosensor function. Fluorescence emission spectra of bPBP-fluorophore conjugates were recorded in the absence and presence of saturating ligand concentrations. Spectral changes were characterized by four parameters: wavelength shift (the difference between the wavelengths of emission maximum in the unbound and ligand-saturated states), direction of intensity change (increase or decrease in intensity at the wavelengths of maximum emission in the two states), standard intensity change (ΔIstd), and standard ratiometric change (ΔR). ΔIstd is defined as the normalized intensity change relative to the average intensity, determined at the wavelength mid-point between the two emission maxima:
[formula] where λstd=(λmax, unbound+λmax, saturated)/2 and I1, I2 are the fluorescence intensities at λstd of each spectrum respectively (FIG. 4A). ΔR is defined in terms of two emission bands, A1 ([λ1, λ2]) and A2 ([λ3, λ4]) (FIG. 4B):
[formula] where ^∘A1, […] the areas in the absence of ligand, and ^∞A1, ^∞A2 the areas in the presence of saturating ligand. A computer program was used to enumerate ΔR for all possible pairs of wavelength bands in the two spectra, to identify the optimal sensing condition, defined as the maximum value of ΔR. Adjustable parameters of the algorithm, and their values used for ΔRmax quantities reported here, are: step size (2 nm), step width (10 nm), minimum integration area limit (fraction of total: 0.1), and maximum integration area limit (fraction of total: 1).

B1: ribose BP L236C JPW4042 (conjugate, UniProt P02925 26-296, looked up, variant L236C)
Ribose import binding protein …: KDTIALVVSTLNNPFFVSLKDGAQKEADKLGYNLVVLDSQNNPAKELANVQDLTVRGTKILLINPTDSDAVGNAVKMANQANIPVITLDRQATKGEVVSHIASDNVLGGKIAGDYIAKKAGEGAKVIELQGIAGTSAARERGEGFQQAVAAHKFNVLASQPADFDRIKGLNVMQNLLTAHPDVQAVFAQNDEMALGALRALQTAGKSDVMVVGFDGTPDGEKAVNDGKLAATIAQCPDQIGAKGVETADKVLKGEKVQAKYPVDLKLVVKQ
modifications: JPW4042 dye conjugate
In the case of B1, the ΔIstd is 0.55 and the ΔRmax turned out to be 3.58.

B2: ribose BP L265C JPW4039 (conjugate, UniProt P02925 26-296, looked up, variant L265C)
Ribose import binding protein …: KDTIALVVSTLNNPFFVSLKDGAQKEADKLGYNLVVLDSQNNPAKELANVQDLTVRGTKILLINPTDSDAVGNAVKMANQANIPVITLDRQATKGEVVSHIASDNVLGGKIAGDYIAKKAGEGAKVIELQGIAGTSAARERGEGFQQAVAAHKFNVLASQPADFDRIKGLNVMQNLLTAHPDVQAVFAQNDEMALGALRALQTAGKSDVMVVGFDGTPDGEKAVNDGKLAATIAQLPDQIGAKGVETADKVLKGEKVQAKYPVDCKLVVKQ
modifications: JPW4039 label
With B2, the ΔIstd turned out to be 0.01 and the ΔRmax was determined as 0.11.

B3: ribose BP L236C NBD (conjugate, UniProt P02925 26-296, looked up, variant L236C)
Ribose import binding protein …: KDTIALVVSTLNNPFFVSLKDGAQKEADKLGYNLVVLDSQNNPAKELANVQDLTVRGTKILLINPTDSDAVGNAVKMANQANIPVITLDRQATKGEVVSHIASDNVLGGKIAGDYIAKKAGEGAKVIELQGIAGTSAARERGEGFQQAVAAHKFNVLASQPADFDRIKGLNVMQNLLTAHPDVQAVFAQNDEMALGALRALQTAGKSDVMVVGFDGTPDGEKAVNDGKLAATIAQCPDQIGAKGVETADKVLKGEKVQAKYPVDLKLVVKQ
modifications: NBD label
As for B3, the ΔIstd was found to be 0.11 and the ΔRmax was 1.96.

B4: ribose BP L265C JPW4042 (conjugate, UniProt P02925 26-296, looked up, variant L265C)
Ribose import binding protein …: KDTIALVVSTLNNPFFVSLKDGAQKEADKLGYNLVVLDSQNNPAKELANVQDLTVRGTKILLINPTDSDAVGNAVKMANQANIPVITLDRQATKGEVVSHIASDNVLGGKIAGDYIAKKAGEGAKVIELQGIAGTSAARERGEGFQQAVAAHKFNVLASQPADFDRIKGLNVMQNLLTAHPDVQAVFAQNDEMALGALRALQTAGKSDVMVVGFDGTPDGEKAVNDGKLAATIAQLPDQIGAKGVETADKVLKGEKVQAKYPVDCKLVVKQ
modifications: JPW4042 label
With B4, the ΔIstd was 0.91 and the ΔRmax worked out at 2.13.

B5: ribose BP L236C JPW4045 (conjugate, UniProt P02925 26-296, looked up, variant L236C)
Ribose import binding protein …: KDTIALVVSTLNNPFFVSLKDGAQKEADKLGYNLVVLDSQNNPAKELANVQDLTVRGTKILLINPTDSDAVGNAVKMANQANIPVITLDRQATKGEVVSHIASDNVLGGKIAGDYIAKKAGEGAKVIELQGIAGTSAARERGEGFQQAVAAHKFNVLASQPADFDRIKGLNVMQNLLTAHPDVQAVFAQNDEMALGALRALQTAGKSDVMVVGFDGTPDGEKAVNDGKLAATIAQCPDQIGAKGVETADKVLKGEKVQAKYPVDLKLVVKQ
modifications: JPW4045 dye label
Turning to B5, the ΔIstd is given as 0.25 and the ΔRmax is given as 1.70.

B6: ribose BP L236C Fluorescein (conjugate, UniProt P02925 26-296, looked up, variant L236C)
Ribose import binding protein …: KDTIALVVSTLNNPFFVSLKDGAQKEADKLGYNLVVLDSQNNPAKELANVQDLTVRGTKILLINPTDSDAVGNAVKMANQANIPVITLDRQATKGEVVSHIASDNVLGGKIAGDYIAKKAGEGAKVIELQGIAGTSAARERGEGFQQAVAAHKFNVLASQPADFDRIKGLNVMQNLLTAHPDVQAVFAQNDEMALGALRALQTAGKSDVMVVGFDGTPDGEKAVNDGKLAATIAQCPDQIGAKGVETADKVLKGEKVQAKYPVDLKLVVKQ
modifications: fluorescein conjugate
Regarding B6, the ΔIstd was 0.02 and the ΔRmax is recorded as 0.29.

The record behind these values is patent publication US9625458B2, “Biosensor” (priority 2002, dated 2017).
